Results: patent US20140017259A1 (TAKIS S R L, published 2014)

T1: human ErbB3 15mer peptide QCNGHCFGPNPNQCC (human)
T1 construct: One of 158 15mer peptides of human ErbB3 overlapping by 11 residues (Jerini Peptide Technologies), coated on the ELISA plate
T1 peptide: QCNGHCFGPNPNQCC


Assays:
[1] = target: T2, Recombinant protein HER3-ECD-Fc (RnD Systems) (human, UniProt P21860 20-643); experiment: competition ELISA (NRG Ligand Blocking): HER3-ECD-Fc on the plate, antibody, then 10 nM NRG-1β, bound NRG detected
T2 construct: extracellular domain; also called Human ErbB3 ECD-Fc protein (RnD); not shown: Fc part of the bought fusion
T2 sequence (P21860 20-643): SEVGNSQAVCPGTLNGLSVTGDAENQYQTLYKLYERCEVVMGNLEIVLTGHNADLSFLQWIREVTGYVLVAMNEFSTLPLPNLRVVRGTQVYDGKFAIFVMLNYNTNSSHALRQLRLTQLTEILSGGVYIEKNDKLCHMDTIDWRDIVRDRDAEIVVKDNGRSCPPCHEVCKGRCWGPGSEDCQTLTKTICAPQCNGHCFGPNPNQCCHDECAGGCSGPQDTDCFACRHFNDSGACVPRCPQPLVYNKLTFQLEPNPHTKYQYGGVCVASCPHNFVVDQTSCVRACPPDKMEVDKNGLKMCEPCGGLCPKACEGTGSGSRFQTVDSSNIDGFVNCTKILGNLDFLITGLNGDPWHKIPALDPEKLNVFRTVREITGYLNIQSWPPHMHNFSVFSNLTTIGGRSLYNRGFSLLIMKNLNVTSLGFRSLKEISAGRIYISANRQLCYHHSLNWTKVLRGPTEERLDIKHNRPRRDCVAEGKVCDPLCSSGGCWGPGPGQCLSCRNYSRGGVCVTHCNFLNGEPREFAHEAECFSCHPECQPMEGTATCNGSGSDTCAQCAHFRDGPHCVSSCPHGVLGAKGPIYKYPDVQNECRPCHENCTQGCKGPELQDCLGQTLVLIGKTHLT

HER2 = target: T3, HER2 (human, UniProt P04626 23-1255); experiment: flow cytometry on transiently transfected CHO cells
T3 construct: whole, on cells; also called ErbB2

HER1/EGFR = target: T4, HER1/EGFR (human, UniProt P00533 25-1210); experiment: as above
T4 construct: whole, on cells

HER4 = target: T5, HER4 (human, UniProt Q15303 26-1308); experiment: as above
T5 construct: whole, on cells; also called ErbB4
T5 sequence (Q15303 26-1308): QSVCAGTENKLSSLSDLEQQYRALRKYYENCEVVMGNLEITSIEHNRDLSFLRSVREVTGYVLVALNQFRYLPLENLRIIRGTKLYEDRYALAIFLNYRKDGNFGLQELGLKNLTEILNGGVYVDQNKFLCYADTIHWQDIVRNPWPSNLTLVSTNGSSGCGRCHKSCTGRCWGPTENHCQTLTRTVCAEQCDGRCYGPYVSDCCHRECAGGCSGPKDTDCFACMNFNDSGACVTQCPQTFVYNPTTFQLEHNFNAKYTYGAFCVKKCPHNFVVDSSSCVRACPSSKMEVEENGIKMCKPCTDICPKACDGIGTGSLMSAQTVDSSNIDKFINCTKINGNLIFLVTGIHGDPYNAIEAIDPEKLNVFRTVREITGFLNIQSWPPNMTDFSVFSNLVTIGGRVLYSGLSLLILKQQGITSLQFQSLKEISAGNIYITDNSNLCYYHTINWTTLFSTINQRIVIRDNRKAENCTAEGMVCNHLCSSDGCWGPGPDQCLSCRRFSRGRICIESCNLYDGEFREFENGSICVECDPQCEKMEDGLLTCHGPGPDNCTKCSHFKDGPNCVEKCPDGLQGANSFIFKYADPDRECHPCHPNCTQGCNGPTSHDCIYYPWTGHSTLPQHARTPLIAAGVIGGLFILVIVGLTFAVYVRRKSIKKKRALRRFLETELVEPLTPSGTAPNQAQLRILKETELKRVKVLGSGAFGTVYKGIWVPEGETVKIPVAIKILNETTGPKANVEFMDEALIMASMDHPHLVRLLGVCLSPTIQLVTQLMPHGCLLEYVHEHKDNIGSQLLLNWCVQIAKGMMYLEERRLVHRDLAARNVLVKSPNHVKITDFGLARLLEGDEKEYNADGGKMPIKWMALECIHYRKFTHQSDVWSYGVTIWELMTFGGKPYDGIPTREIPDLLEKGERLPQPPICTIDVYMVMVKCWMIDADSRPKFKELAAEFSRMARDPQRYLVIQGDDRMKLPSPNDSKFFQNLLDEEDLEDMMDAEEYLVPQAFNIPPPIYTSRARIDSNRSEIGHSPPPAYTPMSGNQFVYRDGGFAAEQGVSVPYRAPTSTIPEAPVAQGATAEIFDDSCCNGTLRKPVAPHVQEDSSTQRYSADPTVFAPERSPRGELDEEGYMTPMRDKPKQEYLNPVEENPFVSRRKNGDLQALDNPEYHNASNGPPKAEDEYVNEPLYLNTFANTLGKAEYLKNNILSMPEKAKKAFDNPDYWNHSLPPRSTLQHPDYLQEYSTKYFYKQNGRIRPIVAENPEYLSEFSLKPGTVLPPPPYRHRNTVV

[2] = target: T2, Recombinant protein HER3-ECD-Fc (RnD …); experiment: SPR, Biacore T100: antibody captured on an anti-Fc CM5 chip, HER3-ECD-Fc injected as analyte
Description: Among the hybridomas described above, two antibodies, A3 and A4, were further selected for a biochemical and functional characterization. In particular, the following assays have been performed: [0174] Bioacore analysis. Affinity for HER3 and kₒₙ/koff were determined by Surface Plasmon Resonance using a Biacore T100 instrument. A biosensor chip CM5 (GE Healthcare) was covalently bound to an anti-Fc (8000 RU) and then treated with antibodies at different concentrations (<1000 RU). Recombinant protein HER3-ECD-Fc (RnD Systems) in HBS-EP buffer at the analyte concentration 1:1 was injected for 2 minutes at 30 μl/min, followed by a 10 minutes dissociation phase. [0175] Cross-reactivity with mouse HER3 receptor and with other human ErbB receptors. […] After a wash in FACS buffer, an anti-mouse IgG conjugated with Phycoerythrin (PE, Becton Dickinson) was added and cells were analyzed by a FACSCalibur (Becton Dickinson). […] After 2 washes with PBS, 0.05% Tween20, the signal was measured by incubation with a biotinylated goat anti-NRG-1β antibody (RnD Systems) and Streptavidin conjugated with peroxidase and utilizing an HRP substrate (Pierce). Data were acquired with an ELISA reader at 450 nm. […]

mouse HER3 [3] = target: T6, mouse HER3 (mouse, UniProt Q61526 20-1339); experiment: flow cytometry on CHO cells transiently transfected with mouse HER3
T6 construct: whole, on cells; also called murine HER3
T6 sequence (Q61526 20-1339): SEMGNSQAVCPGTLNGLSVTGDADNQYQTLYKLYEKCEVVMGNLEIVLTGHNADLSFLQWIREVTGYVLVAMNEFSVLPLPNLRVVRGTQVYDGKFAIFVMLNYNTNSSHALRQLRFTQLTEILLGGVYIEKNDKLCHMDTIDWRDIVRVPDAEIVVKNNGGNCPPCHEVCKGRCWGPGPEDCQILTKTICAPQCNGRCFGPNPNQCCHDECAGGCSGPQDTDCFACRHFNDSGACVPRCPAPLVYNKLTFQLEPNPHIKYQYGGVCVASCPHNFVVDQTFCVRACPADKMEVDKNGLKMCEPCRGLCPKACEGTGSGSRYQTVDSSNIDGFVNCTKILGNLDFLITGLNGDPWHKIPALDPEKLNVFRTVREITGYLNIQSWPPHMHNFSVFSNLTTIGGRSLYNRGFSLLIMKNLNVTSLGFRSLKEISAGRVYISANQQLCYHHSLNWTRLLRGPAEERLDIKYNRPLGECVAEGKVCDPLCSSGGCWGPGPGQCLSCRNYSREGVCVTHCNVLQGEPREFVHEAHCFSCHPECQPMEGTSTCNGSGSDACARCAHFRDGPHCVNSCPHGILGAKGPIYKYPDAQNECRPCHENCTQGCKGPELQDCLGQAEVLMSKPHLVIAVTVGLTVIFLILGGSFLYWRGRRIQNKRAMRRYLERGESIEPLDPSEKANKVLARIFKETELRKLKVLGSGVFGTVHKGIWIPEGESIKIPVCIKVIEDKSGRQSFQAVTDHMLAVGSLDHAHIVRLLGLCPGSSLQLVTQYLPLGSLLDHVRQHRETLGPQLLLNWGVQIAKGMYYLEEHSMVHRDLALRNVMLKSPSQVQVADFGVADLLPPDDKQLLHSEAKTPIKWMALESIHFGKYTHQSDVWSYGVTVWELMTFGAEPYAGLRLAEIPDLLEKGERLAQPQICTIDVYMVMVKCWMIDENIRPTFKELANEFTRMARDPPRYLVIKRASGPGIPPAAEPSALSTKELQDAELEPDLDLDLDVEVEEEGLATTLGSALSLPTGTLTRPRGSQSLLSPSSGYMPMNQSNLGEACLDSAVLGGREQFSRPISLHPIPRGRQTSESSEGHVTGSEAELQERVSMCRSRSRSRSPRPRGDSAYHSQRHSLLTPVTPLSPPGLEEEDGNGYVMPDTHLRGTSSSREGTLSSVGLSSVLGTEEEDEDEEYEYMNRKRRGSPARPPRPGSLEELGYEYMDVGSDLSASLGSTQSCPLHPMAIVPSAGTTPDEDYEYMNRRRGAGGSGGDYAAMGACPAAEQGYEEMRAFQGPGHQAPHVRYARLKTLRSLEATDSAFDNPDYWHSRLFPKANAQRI

mouse HER3 [4] = target: T6, mouse HER3; experiment: flow cytometry on CHO cells transiently transfected with mouse HER3, antibody at 10 µg/ml
[5] = target: T1, human ErbB3 15mer peptide …; experiment: ELISA on plate-coated 15mer peptides, A3 at 1 µg/ml
Description: To identify the epitope recognized by A3 antibody, a human ErbB3 peptide collection consisting of 158 15mer peptides overlapping by 11 residues (Jerini Peptide Technologies, Berlin, Germany) has been utilized. Each peptide was resuspended in DMSO at 40 mg/ml and diluted in sodium carbonate buffer (10 mM, pH 9.6) at 1 μg/ml in 96well plates (Nunc Maxisorp) at a volume of 100 μl/well and incubated over night at 4° C. Human ErbB3 ECD-Fc protein (RnD) and buffer coated wells were used as positive and negative controls of the assay, respectively. The day after, plates were washed with 200 μl PBS 1× pH 7.4 and blocked with PBS 5% BSA for 2 hr at room temperature. After three washes with PBS, 0.05% Tween20 (PBST), plates were incubated for 2 hours at room temperature with A3 antibody diluted at 1 μg/ml in PBST, 1% BSA for 2 hours at room temperature. Plates were then washed three times in PBST and then incubated with 1/5000 diluted goat anti-mouse IgG HRP conjugated (Abcam) for one hour. After three washing in PBST, 100 μl/well 3, 3′, 5, 5′-Tetramethylbenzidine (TMB) Liquid Substrate (Sigma) were added and the reaction stopped 20 minutes later with 50 μl/well Stop Reagent for TMB Substrate (Sigma). OD₄₅₀ was determined at an ELISA reader (Perkin Elmer).

IC50 [1] | binding result (HER2) | binding result (HER1/EGFR) | binding result (HER4) | Kd [2] | binding result (mouse HER3 [3]) | binding result (mouse HER3 [4]) | binding result [5] | Binder
2.8 nM | no binding (tested: 10 µg/ml) | no binding (tested: 10 µg/ml) | no binding (tested: 10 µg/ml) | 2.4 nM | no binding (tested: 10 µg/ml) |  |  | Antibody A4 (antibody, V domains shown, Murine monoclonal IgG with a kappa light chain, from a hybridoma; also called murine A4; A4 monoclonal antibody) VH: QVQLQQPGSELVRPGASVKLSCKASGYTFTIFWIHWVKQRPGQGLEWIGNIYPGSGGTNYDEKFKSKATLTVDTFSSTAYMQLSSLTSEDSAVYYCTRWGTGKDYWGQGTTLKVSS VL: QIVLTQSPAIMSASPGEKVTMTCRARSSVSSSYLHWYQQKPGSSPKLWIYSTSNLALGVPARFSGSGSGTSYSLTISSVEAEDAATYYCQQYDSSPFTFGTGTKLEIKR
1.1 nM | no binding (tested: 10 µg/ml) | no binding (tested: 10 µg/ml) | no binding (tested: 10 µg/ml) | 7.4 nM |  | binds | binds | Antibody A3 (antibody, V domains shown, Murine monoclonal IgG from a hybridoma of BALB/c mice immunised with HER3 H584F DNA; also called A3 monoclonal antibody) VH: QVTLKESGPGKLQPSQTLSLTCSFSGFSLSTYGMGVGWIRQPLGKGLEWLANIWWNDDKYYNSALKSRLTISKDTSNNQVFLKISSVDTADAATYYCVQIANPYWYFDVWGAGTTVTVSS VL: DVLMTQTPLSLPVSLGDQASISCRSSQSIVHSYGNTYLEWYLQKPGQSPKLLIYRVSNRFSGVPDRFSGSGSGTDFTLKISRVEAEDLGVYYCFQGSHVPFTFGTGTKLEIKR
